Measured values published in US20070004909A1 (MacroGenics, published 2007).
Like-named read-outs stand apart in the source and are kept apart here. Each block holds one binder with its values, some of them ahead of it.

Key:
soluble CD16A (sCD16A) [1] = target: T1, soluble CD16A (sCD16A) (UniProt P08637 17-208, limits assumed); assay: sandwich ELISA: sCD32B coated on the plate, normalised conditioned medium titrated, HRP-conjugated sCD16A as the probe; OD450
T1 construct: extracellular domain; Amine-coupled to the chip in SPR; biotin- or HRP-conjugated as the probe in the sandwich ELISAs; also called FcγRIIIA; sCD16A-Biotin
T1 sequence (P08637 17-208 limits assumed): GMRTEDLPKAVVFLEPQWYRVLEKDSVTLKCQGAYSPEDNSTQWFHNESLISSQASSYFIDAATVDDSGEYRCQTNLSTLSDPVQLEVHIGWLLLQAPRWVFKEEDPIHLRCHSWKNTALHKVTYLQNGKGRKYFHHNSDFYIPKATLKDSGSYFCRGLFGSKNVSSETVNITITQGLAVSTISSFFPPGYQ
Procedure: The binding of diabody molecules comprising Fc domains and engineered disulfide bonds between the ‘lighter’ and ‘heavier’ polypeptide chains to sCD32B and sCD16A was assayed in a sandwich ELISA. Diabodies assayed were produced by 3 recombinant expression systems: expressing constructs 1 and 10, expressing constructs 1 and 9, and expressing constructs 11 and 12, respectively. sCD32B was used as the target protein. The secondary probe was HRP conjugated sCD16A. Binding of h3G8 was used as control.
(§1) ELISA: The binding of diabody molecules secreted into the medium was assayed by sandwich ELISA as described, supra. Unless indicated, CD32B was used to coat the plate, i.e., as the target protein, and HRP-conjugated CD16 was used as the probe.

soluble CD16A (sCD16A) [2] = target: T1, soluble CD16A (sCD16A); assay: SPR (BIAcore 1000); receptor amine-coupled (~1000 RU), analyte 6.25-200 nM; units not printed (koff/kon implies nM)
Procedure: (§2) The binding of h2B6-h3G8 CBD, h2B6 CMD and h3G8 CMD to sCD16A, and sCD32B was assayed by SPR analysis. h3G8 scFv was also tested as a control. (A) Binding of to h3G8 CMD sCD16A; (B) Binding of h2B6-h3G8 CBD to sCD16A; (C) Binding of h3G8 scFv to sCD16A; (D) Binding of h2B6 CMD to sCD32B; and (E) Binding of h2B6-h3G8 CBD to sCD32B. Diabodies were injected at concentrations of 6.25-200 nM over receptor surfaces at a flow rate of […] for 180 sec.
(§3) SPR analysis was also used to estimate the kinetic and equilibrium constants of the CMDs and h2B6-h3G8 CBD to sCD16 and/or sCD32B. Results were compared to the same constants calculated for an h3G8 scFV. FIGS. 7A-E show the graphical results of the SPR analysis. The kinetic on and off rates, as well as the equilibrium constant, calculated from the results depicted in FIG. 7 are provided in Table 13.

soluble CD32B (sCD32B) = target: T2, soluble CD32B (sCD32B) (UniProt P31994 43-217, limits assumed); assay: as above
T2 construct: extracellular domain; As immobilised on the BIAcore chip; also called FcγRIIB
T2 sequence (looked up): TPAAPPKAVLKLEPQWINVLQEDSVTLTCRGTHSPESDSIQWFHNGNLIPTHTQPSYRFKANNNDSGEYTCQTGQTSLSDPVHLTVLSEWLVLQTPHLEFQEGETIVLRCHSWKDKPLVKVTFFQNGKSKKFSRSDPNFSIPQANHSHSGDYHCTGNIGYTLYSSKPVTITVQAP
Procedure: as §2, §3

sCD32B-Ig = target: T3, sCD32B-Ig (UniProt P31994 43-217); assay: sandwich ELISA: sCD32B-Ig coated on the plate, diabody titrated, detected with labelled sCD16A; OD450
T3 construct: extracellular domain; also called CD32B (ELISA coat); sCD32B (target protein of the sandwich ELISAs); not shown: Ig part of sCD32B-Ig is not described
T3 sequence (looked up): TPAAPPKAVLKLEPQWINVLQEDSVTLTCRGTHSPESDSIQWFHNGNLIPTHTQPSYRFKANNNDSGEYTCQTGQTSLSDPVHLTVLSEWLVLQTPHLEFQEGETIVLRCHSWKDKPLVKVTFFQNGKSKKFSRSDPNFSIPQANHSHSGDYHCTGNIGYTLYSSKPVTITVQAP
Procedure: The binding of h2B6-h3G8 CBD to sCD32B and sCD16A was assayed in a sandwich ELISA. sCD32B was used as the target protein. The secondary probe was HRP conjugated sCD16A. h3G8 CMD, which binds CD16A, was used as control.
ELISA: The binding of eluted and purified diabodies was characterized by ELISA assay, as described in 5.4.2. 50 ul/well of a 2 ug/ml solution of sCD32B-Ig was coated on 96-well Maxisorp plate in Carbonate buffer at 4° C. over night. The plate was washed three times with PBS-T (PBS, 0.1% Tween 20) and blocked by 0.5% BSA in PBS-T for 30 minutes at room temperature. Subsequently, h2B6-h3G8 CBD, h2B6 CMD, or h3G8 CMD were diluted into the blocking buffer in a serial of two-fold dilutions to generate a range of diabody concentrations, from 0.5 μg/ml to 0.001 μg/ml. The plate was then incubated at room temperature for 1 hour. After washing with PBS-T three times, 50 ul/well of 0.2 ug/ml sCD16A-Biotin was added to each well. The plate was again incubated at room temperature for 1 hour. After washing with PBS-T three times, 50 ul/well of a 1:5000 dilution of HRP conjugated streptavidin (Amersham Pharmacia Biotech) was used for detection. The HRP-streptavidin was allowed to incubate for 45 minutes at room temperature. […] The OD450 nm was read by using a 96-well plate reader and SOFTmax software, and results plotted using GraphPadPrism 3.03 software. […]

soluble CD32A (sCD32A) = target: T4, soluble CD32A (sCD32A) (UniProt P12318 34-217, limits assumed); assay: SPR (BIAcore), sCD32A (negative control receptor) immobilised, diabody injected for 60 s
T4 construct: extracellular domain; Negative control surface in SPR; also called control receptor
T4 sequence (looked up): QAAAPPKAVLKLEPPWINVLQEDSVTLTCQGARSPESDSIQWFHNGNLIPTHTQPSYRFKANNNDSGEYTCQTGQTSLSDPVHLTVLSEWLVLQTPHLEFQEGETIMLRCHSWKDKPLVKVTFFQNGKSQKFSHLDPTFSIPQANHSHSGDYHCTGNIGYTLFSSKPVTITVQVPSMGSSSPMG
Procedure: The binding of h2B6-h3G8 CBD, h2B6 CMD and h3G8 CMD to sCD16A, sCD32B, and sCD32A (negative control) was assayed by SPR analysis. h3G8 scFv was also tested as a control. (A) Binding to sCD16; (B) Binding to sCD32B and (C) Binding to sCD32A. Diabodies were injected at a concentration of 100 NM, and scFv at a concentration of 200 nM, over receptor surfaces at a flow rate of […] for 60 sec.

soluble CD16A (sCD16A) [3] = target: T1, soluble CD16A (sCD16A); assay: sandwich ELISA: sCD32B coated on the plate, normalised conditioned medium titrated, HRP-conjugated sCD16A as the probe; OD450; remark: listed apart in the source
Procedure: The binding of diabody molecules comprising Fc domains to sCD32B and sCD16A was assayed in a sandwich ELISA. Diabodies assayed were produced by 4 recombinant expression systems: cotransfection of pMGX669+pMGX674, expressing constructs 1 and 6, respectively; cotransfection of pMGX669+pMGX678, expressing constructs 2 and 8, respectively; cotransfection of pMGX677+pMGX674, expressing constructs 7 and 6, respectively; and cotransfection of pMGX677+pMGX678, expressing constructs 7 and 8, respectively. sCD32B was used as the target protein. The secondary probe was HRP conjugated sCD16A.
as §1

Kd (soluble CD16A (sCD16A) [2]): 22.7 nM
Kd (soluble CD32B (sCD32B)): 15 nM
EC50 (read off the curve) (sCD32B-Ig): ~0.04 µg/mL
binding result (soluble CD32A (sCD32A)): no binding (tested: 100 nM)
B3: h2B6-h3G8 covalent bispecific diabody (CBD) (bispecific antibody)
chain 1: EIVLTQSPDFQSVTPKEKVTFTCRTSQSIGTNIHWYQQKPDQSPKLLIKEVSESISGVPSRFSGSGSGTDFTLTINSLEAEDAATYYCQQSNTWPFTFGGGTKVEIKGGGSGGGGQVTLRESGPALVKPTQTLTLTCTFSGFSLSTSGMGVGWIRQPPGKALEWLAHIWWDDDKRYNPALKSRLTISKDTSKNQVVLTMTNMDPVDTATYYCAQINPAWFAYWGQGTLVTVSSLGGC
chain 2: DIVMTQSPDSLAVSLGERATINCKASQSVDFDGDSFMNWYQQKPGQPPKLLIYTTSNLESGVPDRFSGSGSGTDFTLTISSLQAEDVAVYYCQQSNEDPYTFGQGTKLEIKGGGSGGGGQVQLVQSGAEVKKPGASVKVSCKASGYTFTNYWIHWVRQAPGQGLEWIGVIDPSDTYPNYNKKFKGRVTMTVVVSTSTAYMELRSLRSDDTAVYYCARNGDSDYYSGMDYWGQGTTVTVSSLGGC
notes: also called h2B6-h3G8 CBD; h2B6-h3G8 diabody

binding result (soluble CD16A (sCD16A) [3]): binds
B5: tetrameric IgG-like diabody of constructs 7 and 8 (pMGX0677+pMGX0678) (bispecific antibody)
chain 1: EIVLTQSPDFQSVTPKEKVTFTCRTSQSIGTNIHWYQQKPDQSPKLLIKEVSESISGVPSRFSGSGSGTDFTLTINSLEAEDAATYYCQQSNTWPFTFGGGTKVEIKGGGSGGGGQVTLRESGPALVKPTQTLTLTCTFSGFSLSTSGMGVGWIRQPPGKALEWLAHIWWDDDKRYNPALKSRLTISKDTSKNQVVLTMTNMDPVDTATYYCAQINPAWFAYWGQGTLVTVSSLGGCFNRGEC
chain 2: not shown
notes: heavier chain construct 8 (hu3G8VL-hu2B6VH-LGGC-hinge/Fc of human IgG1, A215V); Tested as normalized conditioned medium

The remaining lines, values behind:

B1: diabody of constructs 11 and 12, C-terminal hinge-Fc and engineered VL/VH cysteines (bispecific antibody, human IgG1)
chain 1: not shown
chain 2: DIVMTQSPDSLAVSLGERATINCKASQSVDFDGDSFMNWYQQKPGQPPKLLIYTTSNLESGVPDRFSGSGSGTDFTLTISSLQAEDVAVYYCQQSNEDPYTFGQGTKLEIKGGGSGGGGQVQLVQSGAEVKKPGASVKVSCKASGYTFTNYWIHWVRQAPGQCLEWIGVIDPSDTYPNYNKKFKGRVTMTVVVSTSTAYMELRSLRSDDTAVYYCARNGDSDYYSGMDYWGQGTTVTVSSFNRGEC
notes: construct 12 = Hu3G8VL-Hu2B6VH(G44C)-FNRGEC; About 150 kDa on the blot
binding result (soluble CD16A (sCD16A) [1]): binds

B2: diabody of constructs 1 and 9 (pMGX0669+pMGX0719), N-terminal hinge/Fc (bispecific antibody, human IgG1)
chain 1: EIVLTQSPDFQSVTPKEKVTFTCRTSQSIGTNIHWYQQKPDQSPKLLIKEVSESISGVPSRFSGSGSGTDFTLTINSLEAEDAATYYCQQSNTWPFTFGGGTKVEIKGGGSGGGGQVTLRESGPALVKPTQTLTLTCTFSGFSLSTSGMGVGWIRQPPGKALEWLAHIWWDDDKRYNPALKSRLTISKDTSKNQVVLTMTNMDPVDTATYYCAQINPAWFAYWGQGTLVTVSSLGGC
chain 2: not shown
notes: Designed as tetravalent IgG-like diabody; Tested as normalized conditioned medium; also called constructs 9 and 1; constructs 9+1
binding result (soluble CD16A (sCD16A) [1]): binds

B4: diabody of constructs 1 and 10 (pMGX0669+pMGX0718), N-terminal Fc (bispecific antibody)
chain 1: EIVLTQSPDFQSVTPKEKVTFTCRTSQSIGTNIHWYQQKPDQSPKLLIKEVSESISGVPSRFSGSGSGTDFTLTINSLEAEDAATYYCQQSNTWPFTFGGGTKVEIKGGGSGGGGQVTLRESGPALVKPTQTLTLTCTFSGFSLSTSGMGVGWIRQPPGKALEWLAHIWWDDDKRYNPALKSRLTISKDTSKNQVVLTMTNMDPVDTATYYCAQINPAWFAYWGQGTLVTVSSLGGC
chain 2: not shown
notes: also called constructs 10 and 1; constructs 10+1; copies: 2 + 2
binding result (soluble CD16A (sCD16A) [1]): binds
